Measurements taken from patent US20250243277A1 (AVACTA LIFE SCIENCES, published 2025).

B1: Clone 135 (designed binder)
chain: MIPGGLSEAKPATPEIQEIVDKVKPQLEEKTGETYGKLEAVQYKTQVVAVYPTFKYGTNYYIKVRAGDNKYMHLKVFKSLKVEYLDFITEDLVLTGYQVDKNKDDELTGF
notes: His-tagged
B2: Clone 138 (designed binder)
chain: MIPGGLSEAKPATPEIQEIVDKVKPQLEEKTGETYGKLEAVQYKTQVVDNVRHGWLSGTNYYIKVRAGDNKYMHLKVFKSLFALLWSAYGEDLVLTGYQVDKNKDDELTGF
notes: His-tagged
B3: Clone 140 (designed binder)
chain: MIPGGLSEAKPATPEIQEIVDKVKPQLEEKTGETYGKLEAVQYKTQVVRQVGVWAYEGTNYYIKVRAGDNKYMHLKVFKSLGRTVEGGRWEDLVLTGYQVDKNKDDELTGF
notes: His-tagged
B4: Clone 174 (designed binder)
chain: MIPGGLSEAKPATPEIQEIVDKVKPQLEEKTGETYGKLEAVQYKTQVVRQVTIWHFEGTNYYIKVRAGDNKYMHLKVFKSLGRTEVEGSFEDLVLTGYQVDKNKDDELTGF
notes: His-tagged
B5: Clone 137 (designed binder)
chain: MIPGGLSEAKPATPEIQEIVDKVKPQLEEKTGETYGKLEAVQYKTQVVLWPLQPKNWGTNYYIKVRAGDNKYMHLKVFKSLGWNYLEAIAEDLVLTGYQVDKNKDDELTGF
notes: His-tagged
B6: Clone 133 (designed binder)
chain: MIPGGLSEAKPATPEIQEIVDKVKPQLEEKTGETYGKLEAVQYKTQVVLYSESRDYKGTNYYIKVRAGDNKYMHLKVFKSLHAYKGSIYREDLVLTGYQVDKNKDDELTGF
notes: His-tagged
B7: Clone 16 (designed binder)
chain: MIPGGLSEAKPATPEIQEIVDKVKPQLEEKTGETYGKLEAVQYKTQVVHIQWPPWVEGTNYYIKVRAGDNKYMHLKVFKSLGWTSDNSNFEDLVLTGYQVDKNKDDELTGF
notes: His-tagged
B8: Clone 154 (designed binder)
chain: MIPGGLSEAKPATPEIQEIVDKVKPQLEEKTGETYGKLEAVQYKTQVVPQIGAPYVKGTNYYIKVRAGDNKYMHLKVFKSLGWNSNIGVLEDLVLTGYQVDKNKDDELTGF
notes: His-tagged
B9: Clone 240 (designed binder)
chain: MIPGGLSEAKPATPEIQEIVDKVKPQLEEKTGETYGKLEAVQYKTQVVLLYQAPFVQGTNYYIKVRAGDNKYMHLKVFKSLGWDLEYSQKEDLVLTGYQVDKNKDDELTGF
notes: His-tagged
B10: Clone 19 (designed binder)
chain: MIPGGLSEAKPATPEIQEIVDKVKPQLEEKTGETYGKLEAVQYKTQVVYRFGPPYVKGTNYYIKVRAGDNKYMHLKVFKSLGWNAFSSPAEDLVLTGYQVDKNKDDELTGF
notes: His-tagged
B11: Clone 161 (designed binder)
chain: MIPGGLSEAKPATPEIQEIVDKVKPQLEEKTGETYGKLEAVQYKTQVVVLERPPYVKGTNYYIKVRAGDNKYMHLKVFKSLNWEGEPSGVEDLVLTGYQVDKNKDDELTGF
notes: His-tagged
B12: Clone 219 (designed binder)
chain: MIPGGLSEAKPATPEIQEIVDKVKPQLEEKTGETYGKLEAVQYKTQVVPLTIPPFVEGTNYYIKVRAGDNKYMHLKVFKSLGWQQVNDVKEDLVLTGYQVDKNKDDELTGF
notes: His-tagged
B13: Clone 141 (designed binder)
chain: MIPGGLSEAKPATPEIQEIVDKVKPQLEEKTGETYGKLEAVQYKTQVVDLHTLKSGVGTNYYIKVRAGDNKYMHLKVFKSLYIKHHLWWIEDLVLTGYQVDKNKDDELTGF
notes: His-tagged
B14: Clone 134 (designed binder)
chain: MIPGGLSEAKPATPEIQEIVDKVKPQLEEKTGETYGKLEAVQYKTQVVFWFEDIQWLGTNYYIKVRAGDNKYMHLKVFKSLRFREDVDIREDLVLTGYQVDKNKDDELTGF
notes: His-tagged
B15: Clone 176 (designed binder)
chain: MIPGGLSEAKPATPEIQEIVDKVKPQLEEKTGETYGKLEAVQYKTQVVFWYPEIGWLGTNYYIKVRAGDNKYMHLKVFKSLRSRYPNYTAEDLVLTGYQVDKNKDDELTGF
notes: His-tagged
B16: Clone 162 (designed binder)
chain: MIPGGLSEAKPATPEIQEIVDKVKPQLEEKTGETYGKLEAVQYKTQVVFTFSSIGWWGTNYYIKVRAGDNKYMHLKVFKSLRQLLDKPRYEDLVLTGYQVDKNKDDELTGF
notes: His-tagged
B17: Clone 29 (designed binder)
chain: MIPGGLSEAKPATPEIQEIVDKVKPQLEEKTGETYGKLEAVQYKTQVVFTFVDIHWYGTNYYIKVRAGDNKYMHLKVFKSLRKPKDRQYTEDLVLTGYQVDKNKDDELTGF
notes: His-tagged
B18: Clone 124 (designed binder)
chain: MIPGGLSEAKPATPEIQEIVDKVKPQLEEKTGETYGKLEAVQYKTQVDQVLWEIFEHGTNYYIKVRAGDNKYMHLKVFKSLFHQWSPALHEDLVLTGYQVDKNKDDELTGF
notes: His-tagged
B19: Clone 131 (designed binder)
chain: MIPGGLSEAKPATPEIQEIVDKVKPQLEEKTGETYGKLEAVQYKTQVVNQWEWPVDLGTNYYIKVRAGDNKYMHLKVFKSLKVYRTHHIFEDLVLTGYQVDKNKDDELTGF
notes: His-tagged
B20: Clone 132 (designed binder)
chain: MIPGGLSEAKPATPEIQEIVDKVKPQLEEKTGETYGKLEAVQYKTQVVERYHFPQFTGTNYYIKVRAGDNKYMHLKVFKSLNHDQVRWNLEDLVLTGYQVDKNKDDELTGF
notes: His-tagged
B21: Clone 121 (designed binder)
chain: MIPGGLSEAKPATPEIQEIVDKVKPQLEEKTGETYGKLEAVQYKTQVDGNFAHERWQGTNYYIKVRAGDNKYMHLKVFKSLYIARDFDWTEDLVLTGYQVDKNKDDELTGF
notes: His-tagged
B22: Clone 13 (designed binder)
chain: MIPGGLSEAKPATPEIQEIVDKVKPQLEEKTGETYGKLEAVQYKTQVVLFREEKYNYGTNYYIKVRAGDNKYMHLKVFKSLAWGEVVSNAEDLVLTGYQVDKNKDDELTGF
notes: His-tagged
B23: Clone 14 (designed binder)
chain: MIPGGLSEAKPATPEIQEIVDKVKPQLEEKTGETYGKLEAVQYKTQVVSFLVDPLHLGTNYYIKVRAGDNKYMHLKVFKSLRSFGGEWGWEDLVLTGYQVDKNKDDELTGF
notes: His-tagged
B24: Clone 136 (designed binder)
chain: MIPGGLSEAKPATPEIQEIVDKVKPQLEEKTGETYGKLEAVQYKTQVVVLRWQWGYLGTNYYIKVRAGDNKYMHLKVFKSLQLLYEDNDEDLVLTGYQVDKNKDDELTGF
notes: His-tagged
B25: Clone 126 (designed binder)
chain: MIPGGLSEAKPATPEIQEIVDKVKPQLEEKTGETYGKLEAVQYKTQVVYEPHHPYPWGTNYYIKVRAGDNKYMHLKVFKSLQYHPPYERFEDLVLTGYQVDKNKDDELTGF
notes: His-tagged
B26: Clone 142 (designed binder)
chain: MIPGGLSEAKPATPEIQEIVDKVKPQLEEKTGETYGKLEAVQYKTQVVSWYKLWSYSGTNYYIKVRAGDNKYMHLKVFKSLFEGRHKDPEEDLVLTGYQVDKNKDDELTGF
notes: His-tagged
B27: Clone 139 (designed binder)
chain: MIPGGLSEAKPATPEIQEIVDKVKPQLEEKTGETYGKLEAVQYKTQVVGLIQPPYAQGTNYYIKVRAGDNKYMHLKVFKSLGWQYIDLFHEDLVLTGYQVDKNKDDELTGF
notes: His-tagged
B28: Clone 143 (designed binder)
chain: MIPGGLSEAKPATPEIQEIVDKVKPQLEEKTGETYGKLEAVQYKTQVVDWPSHAKFWGTNYYIKVRAGDNKYMHLKVFKSLFLPDKDDPFEDLVLTGYQVDKNKDDELTGF
notes: His-tagged
B29: Clone 144 (designed binder)
chain: MIPGGLSEAKPATPEIQEIVDKVKPQLEEKTGETYGKLEAVQYKTQVVAYQSPPYHFGTNYYIKVRAGDNKYMHLKVFKSLRQIAGYIAIEDLVLTGYQVDKNKDDELTGF
notes: His-tagged
B30: Clone 127 (designed binder)
chain: MIPGGLSEAKPATPEIQEIVDKVKPQLEEKTGETYGKLEAVQYKTQVVTQAIPWREWGTNYYIKVRAGDNKYMHLKVFKSLIPEWPKDASEDLVLTGYQVDKNKDDELTGF
notes: His-tagged
B31: Clone 123 (designed binder)
chain: MIPGGLSEAKPATPEIQEIVDKVKPQLEEKTGETYGKLEAVQYKTQVDNLVYYQRDWGTNYYIKVRAGDNKYMHLKVFKSLEPGRWRWPKEDLVLTGYQVDKNKDDELTGF
notes: His-tagged
B32: Clone 128 (designed binder)
chain: MIPGGLSEAKPATPEIQEIVDKVKPQLEEKTGETYGKLEAVQYKTQVVPEVDKAEWWGTNYYIKVRAGDNKYMHLKVFKSLIRYGLRHEREDLVLTGYQVDKNKDDELTGF
notes: His-tagged
B33: Clone 130 (designed binder)
chain: MIPGGLSEAKPATPEIQEIVDKVKPQLEEKTGETYGKLEAVQYKTQVVPQPEWNEWGVTNYYIKVRAGDNKYMHLKVFKSLIFWNEKLIREDLVLTGYQVDKNKDDELTGF
notes: His-tagged
B34: Clone 120 (designed binder)
chain: MIPGGLSEAKPATPEIQEIVDKVKPQLEEKTGETYGKLEAVQYKTQVDPEVSITRWQGTNYYIKVRAGDNKYMHLKVFKSLYETHGNIITEDLVLTGYQVDKNKDDELTGF
notes: His-tagged
B35: Clone 125 (designed binder)
chain: MIPGGLSEAKPATPEIQEIVDKVKPQLEEKTGETYGKLEAVQYKTQVVTRLHFPQYQGTNYYIKVRAGDNKYMHLKVFKSLEIEVNPYANEDLVLTGYQVDKNKDDELTGF
notes: His-tagged

molecular target: T1, human PD-L1-Fc (R&D Systems) (human, UniProt Q9NZQ7 19-239); assay: soluble Affimer ELISA
T1 construct: Bought from R&D Systems; Biotinylated in-house for the phage selection; also called huPD-L1-Fc; human PD-L1-Fc antigen; not shown: Fc part of the bought fusion
T1 sequence (Q9NZQ7 19-239 limits assumed): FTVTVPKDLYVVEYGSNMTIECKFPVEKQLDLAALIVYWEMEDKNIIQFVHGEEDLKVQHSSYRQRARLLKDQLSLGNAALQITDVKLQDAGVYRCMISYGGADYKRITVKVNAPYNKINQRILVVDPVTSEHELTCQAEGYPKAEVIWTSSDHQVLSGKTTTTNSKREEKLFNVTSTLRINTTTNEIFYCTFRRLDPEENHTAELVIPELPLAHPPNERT

Binding result, binds:
B1
B2
B3
B4
B5
B6
B7
B8
B9
B10
B11
B12
B13
B14
B15
B16
B17
B18
B19
B20
B21
B22
B23
B24
B25
B26
B27
B28
B29
B30
B31
B32
B33
B34
B35
